Measured values reported in patent US20260242436A1 (HANMI PHARM, published 2026).
Changes are numbered by the printed parent chain. Blank lines part the entries; values can stand above or below the binder they belong to.

Columns and labels:
[1] = target: T1, interleukin-2 alpha receptor (SYMANSIS, #4102H) to which a human immunoglobulin Fc region was linked (UniProt P01589 22-213, limits assumed); experiment: SPR (Biacore T200); receptor-Fc captured on anti-human Ig CM5 chip
T1 construct: Bought receptor-Fc, captured on anti-human immunoglobulin antibody; also called IL-2Rα; CD25; not shown: human immunoglobulin Fc region
T1 sequence (looked up): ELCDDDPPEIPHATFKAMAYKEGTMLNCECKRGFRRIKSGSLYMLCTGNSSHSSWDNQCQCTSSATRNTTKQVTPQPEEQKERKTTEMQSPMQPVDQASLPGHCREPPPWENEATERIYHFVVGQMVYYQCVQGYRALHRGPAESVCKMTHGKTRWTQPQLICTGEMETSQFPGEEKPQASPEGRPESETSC

[2] = target: T2, interleukin-2 beta receptor (SYMANSIS, #4122H) to which a human immunoglobulin Fc region was linked (UniProt P14784 27-239, limits assumed); experiment: SPR (Biacore T200); receptor-Fc captured on anti-human Ig CM5 chip, analog flowed; relative to analog 1 = 100%
T2 construct: Bought receptor-Fc, captured on anti-human immunoglobulin antibody; also called IL-2Rβ; CD122; not shown: human immunoglobulin Fc region
T2 sequence (looked up): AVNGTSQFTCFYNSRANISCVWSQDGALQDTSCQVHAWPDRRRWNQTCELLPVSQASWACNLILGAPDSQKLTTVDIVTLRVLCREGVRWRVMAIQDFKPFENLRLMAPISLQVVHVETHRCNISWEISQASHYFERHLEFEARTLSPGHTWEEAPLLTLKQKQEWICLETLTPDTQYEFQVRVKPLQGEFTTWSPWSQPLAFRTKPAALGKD
Experimental: In order to measure the binding affinities of the interleukin-2 analogs obtained in Example 4 for each of interleukin-2 alpha and beta receptors, surface plasmon resonance (SPR, BIACORE T200, GE Healthcare) was used. The binding affinities of the prepared analogs for the alpha and beta receptors were measured, and the binding affinity of each of the prepared analogs was compared with that of interleukin-2 analog 1 (aldesleukin).
First, an anti-human immunoglobulin antibody (Abcam, #ab97221) was immobilized to a CM5 chip (GE healthcare) to about 5,000 resonance unit (RU) through amine coupling, and then the interleukin-2 alpha receptor ([…], #4102H) or interleukin-2 beta receptor ([…], #4122H), to each of which a human immunoglobulin Fc region was linked, was bound to the immunoglobulin antibody using an antigen-antibody binding reaction and thus finally immobilized. Thereafter, the recombinant interleukin-2 analog prepared above was diluted with HBS-P+ buffer (Cytiva, BR100671) to various concentrations by serial dilution, and the diluted samples were allowed to flow through CM5 chips, to which the interleukin-2 receptors were finally immobilized, to measure the binding affinity of each interleukin-2 receptor. […] Upon the completion of the measurement, the binding affinity of the receptor was evaluated according to the 1:1 binding fitting model in the Biaevaluation program.

- binding result [1]: no binding
- Relative binding affinity (%) [2]: 156%
B1: interleukin-2 analog 20 (ligand)
chain: PTSSSTKKTQLQLEHLLLDLQMILNGINNYKNPKLTAMLTKKFYMPKKATELKHLQCLEEELKPLEEVLNLAQSKNFHLRPRDVVSNINVFVLELKGSETTFMCEYADETATIVEFLNRWITFSQSIISTLT

- binding result [1]: no binding
- Relative binding affinity (%) [2]: 98.1%
B2: interleukin-2 analog 15 (ligand)
chain: B1 chain with D83E, V84L, V85I, F91I

- binding result [1]: no binding
- Relative binding affinity (%) [2]: 14100%
B3: interleukin-2 analog 21 (ligand)
chain: B1 chain with L79F, R80D

- binding result [1]: no binding
- Relative binding affinity (%) [2]: 3820%
B4: interleukin-2 analog 52 (ligand)
chain: B1 chain with L79F, R80D, V84L, V85I

- binding result [1]: no binding
- Relative binding affinity (%) [2]: 166%
B5: interleukin-2 analog 12 (ligand)
chain: B1 chain with V84L, V85I, F91I

- binding result [1]: no binding
- Relative binding affinity (%) [2]: 691%
B6: interleukin-2 analog 53 (ligand)
chain: B1 chain with L79F, R80D, D83E, V84L, V85I

- binding result [1]: no binding
- Relative binding affinity (%) [2]: 455%
B7: interleukin-2 analog 19 (ligand)
chain: B1 chain with R80D, V84L, V85I
